The results in this text go back to patent US20220235136A1, “METHODS AND COMPOSITIONS FOR TREATING A DISEASE OR DISORDER” (YALE UNIVERSITY, priority 2019, published 2022).

For this test, the target named is human IGF1R on transfected CHO cells (human), P08069. The test can be described thus: flow cytometry, IGFBP7-Ig on IGF1R transfected CHO cells (CHO-WT: 3.52). Conditions: remark: other sources report otherwise. On the technique in general: In flow cytometry, cells or beads pass a laser one at a time.
Sequence of human IGF1R on transfected CHO cells (human), P08069 (P08069 31-1367): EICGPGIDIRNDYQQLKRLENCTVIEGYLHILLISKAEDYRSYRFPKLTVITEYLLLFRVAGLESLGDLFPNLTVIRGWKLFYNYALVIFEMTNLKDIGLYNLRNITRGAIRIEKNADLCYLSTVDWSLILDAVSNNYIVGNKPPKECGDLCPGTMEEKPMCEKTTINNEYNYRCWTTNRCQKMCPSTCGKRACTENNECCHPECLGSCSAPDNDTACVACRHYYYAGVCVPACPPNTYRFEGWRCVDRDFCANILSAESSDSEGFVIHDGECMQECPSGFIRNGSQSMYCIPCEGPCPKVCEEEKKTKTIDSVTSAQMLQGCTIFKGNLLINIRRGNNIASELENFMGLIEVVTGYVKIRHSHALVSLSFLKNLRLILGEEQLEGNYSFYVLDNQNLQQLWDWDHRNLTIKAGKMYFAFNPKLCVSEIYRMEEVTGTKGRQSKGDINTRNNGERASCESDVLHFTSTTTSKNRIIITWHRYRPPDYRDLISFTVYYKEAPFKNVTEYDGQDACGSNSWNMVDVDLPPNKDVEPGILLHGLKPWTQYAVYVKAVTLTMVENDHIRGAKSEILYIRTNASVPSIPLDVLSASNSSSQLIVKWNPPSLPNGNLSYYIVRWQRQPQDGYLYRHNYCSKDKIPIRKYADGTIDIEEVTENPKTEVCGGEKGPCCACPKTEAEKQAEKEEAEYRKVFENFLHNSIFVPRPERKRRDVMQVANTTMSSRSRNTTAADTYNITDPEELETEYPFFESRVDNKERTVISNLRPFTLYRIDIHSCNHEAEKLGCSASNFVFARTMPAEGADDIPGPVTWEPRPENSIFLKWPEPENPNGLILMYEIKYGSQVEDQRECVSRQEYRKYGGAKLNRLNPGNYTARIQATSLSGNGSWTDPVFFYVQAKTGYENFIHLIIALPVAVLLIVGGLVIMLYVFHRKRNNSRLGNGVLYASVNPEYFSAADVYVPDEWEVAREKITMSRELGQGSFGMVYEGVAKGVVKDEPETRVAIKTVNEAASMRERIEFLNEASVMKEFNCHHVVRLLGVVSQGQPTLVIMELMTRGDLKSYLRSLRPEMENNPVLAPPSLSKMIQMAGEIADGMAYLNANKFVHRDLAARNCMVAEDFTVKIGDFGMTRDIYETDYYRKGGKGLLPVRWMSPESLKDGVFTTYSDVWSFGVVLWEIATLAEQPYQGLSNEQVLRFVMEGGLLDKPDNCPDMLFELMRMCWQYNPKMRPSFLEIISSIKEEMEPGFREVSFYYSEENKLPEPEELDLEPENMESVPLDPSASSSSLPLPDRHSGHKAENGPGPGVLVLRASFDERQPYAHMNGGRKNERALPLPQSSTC

B1: Human IGFBP7 (Fc-tag), Sino Biological, Q16270 27-282 (Fc fusion, not shown: a dimerising Fc or GST)
chain: SSSDTCGPCEPASCPPLPPLGCLLGETRDACGCCPMCARGEGEPCGGGGAGRGYCAPGMECVKSRKRRKGKAGAAAGGPGVSGVCVCKSRYPVCGSDGTTYPSGCQLRAASQRAESRGEKAITQVSKGTCEQGPSIVTPPKDIWNVTGAQVYLSCEVIGIPTPVLIWNKVKRGHYGVQRTELLPGDRDNLAIQTRGGPEKHEVTGWVLVSPLSKEDAGEYECHASNSQGQASASAKITVVDALHEIPVKKGEGAEL
For B1, the number printed above the gate of the dot plot (share of cells in the gate; unit not given) amounted to 2.04.
